Laboratory results as given in patent publication US20220064327A1 (KYMAB, published 2022).
Positions count from the first letter of the chain named.

B1: NINA-0128 (antibody, V domains shown)
VH: EVQLVESGGGFVQPGGSLRLSCAVSGFTFNSYWMSWVRQAPGKGLEWVANINQDGSEKFYVASVKGRFTMSRDNAKKSVYVQMNSLRAEDTAVYYCAREGYSSSSYYGMDVWGQGTTVTVSS
VL: SYVLTQPPSVSVAPGETARITCGGDNIGRKSVYWYQQKSGQAPVLVIYYDSDRPSGIPERFSGSNSGNTATLTISRVEAGDEADYYCQVWDGSSDHWVFGGGTKLTVL
B2: NINA-1172.0128 (antibody, V domains shown)
VH: B1 VH with E57R, S104I, S105K
VL: B1 VL
B3: NINA-1280.0128 (antibody, V domains shown)
VH: B1 VH with T28R, E57R, S104I, S105K
VL: B1 VL
B4: NINA-1091.0128 (antibody, V domains shown)
VH: B1 VH with E57R, S103I
VL: B1 VL
B5: NINA-0436.0128 (antibody, V domains shown)
VH: B1 VH with S104I
VL: B1 VL
B6: TINA-0215.0128 (antibody, V domains shown)
VH: QVQLVQSGAEVKKPGASVKVSCKASRYSFTSYYMHWVRQAPGQGLEWMGIINPKSGSTSYAQKFQGRVTMTRDTSTSTVYMELSSLRSEDTAVYYCARDGYGSSSRCLQLWGQGTLVTVSS
VL: B1 VL
notes: Monospecific IgG4PE
B7: TINA-0207.0128 (antibody, V domains shown)
VH: B6 VH with P14T
VL: B1 VL
notes: Monospecific IgG4PE
B8: TINA-0211.0128 (antibody, V domains shown)
VH: B6 VH with E82D
VL: B1 VL
notes: Monospecific IgG4PE
B9: TINA-0202.0128 (antibody, V domains shown)
VH: B6 VH with V5I, K12Q
VL: B1 VL
notes: Monospecific IgG4PE
B10: TINA-0201.0128 (antibody, V domains shown)
VH: B6 VH with V5I
VL: B1 VL
notes: Monospecific IgG4PE
B11: TINA-0210.0128 (antibody, V domains shown)
VH: B6 VH with S84N
VL: B1 VL
notes: Monospecific IgG4PE
B12: TINA-0217.0128 (antibody, V domains shown)
VH: B6 VH with K12T
VL: B1 VL
notes: Monospecific IgG4PE
B13: TINA-0209.0128 (antibody, V domains shown)
VH: B6 VH with K12Q, M34L, S55T, S57D, S77T, S105A
VL: B1 VL
notes: Monospecific IgG4PE
B14: TINA-0214.0128 (antibody, V domains shown)
VH: B6 VH with P14T, K23Q
VL: B1 VL
notes: Monospecific IgG4PE
B15: TINA-0204.0128 (antibody, V domains shown)
VH: B6 VH with K12Q, P14T
VL: B1 VL
notes: Monospecific IgG4PE
B16: TINA-0203.0128 (antibody, V domains shown)
VH: B6 VH with S84I
VL: B1 VL
notes: Monospecific IgG4PE
B17: TINA-0200.0128 (antibody, V domains shown)
VH: B6 VH with M34L, S55T, S57D, S77T, S105A
VL: B1 VL
notes: Monospecific IgG4PE
B18: TINA-0206.0128 (antibody, V domains shown)
VH: B6 VH with S57D, E82D, S105A
VL: B1 VL
notes: Monospecific IgG4PE
B19: NINA-0442.0128 (antibody, V domains shown)
VH: B1 VH with S104Q
VL: B1 VL
B20: NINA-0445.0128 (antibody, V domains shown)
VH: B1 VH with S104V
VL: B1 VL
B21: NINA-0440.0128 (antibody, V domains shown)
VH: B1 VH with S104N
VL: B1 VL
B22: NINA-0438.0128 (antibody, V domains shown)
VH: B1 VH with S104L
VL: B1 VL
B23: NINA-0444.0128 (antibody, V domains shown)
VH: B1 VH with S104T
VL: B1 VL
B24: NINA-0456.0128 (antibody, V domains shown)
VH: B1 VH with S105L
VL: B1 VL
B25: TINA-0638.0128 (antibody, V domains shown)
VH: B6 VH with V5I, Q109M
VL: B1 VL
notes: Monospecific IgG; position is IMGT numbering, not a count on the entry
B26: TINA-0616.0128 (antibody, V domains shown)
VH: B6 VH with V5I, L108I
VL: B1 VL
notes: as for B25
B27: TINA-0666.0128 (antibody, V domains shown)
VH: B6 VH with V5I, C107I, L108I
VL: B1 VL
notes: Monospecific IgG

Biological target: T1, human factor IX (human, UniProt P00740 47-461, 12 glutamic acid residues of the GLA domain are post-translationally γ-carboxylated)
T1 construct: Zymogen used as analyte in SPR, reconstituted at 1 mg/ml; also called FIX; Human FIX (MW ~55 KDa)
T1 sequence (P00740 47-461 limits assumed): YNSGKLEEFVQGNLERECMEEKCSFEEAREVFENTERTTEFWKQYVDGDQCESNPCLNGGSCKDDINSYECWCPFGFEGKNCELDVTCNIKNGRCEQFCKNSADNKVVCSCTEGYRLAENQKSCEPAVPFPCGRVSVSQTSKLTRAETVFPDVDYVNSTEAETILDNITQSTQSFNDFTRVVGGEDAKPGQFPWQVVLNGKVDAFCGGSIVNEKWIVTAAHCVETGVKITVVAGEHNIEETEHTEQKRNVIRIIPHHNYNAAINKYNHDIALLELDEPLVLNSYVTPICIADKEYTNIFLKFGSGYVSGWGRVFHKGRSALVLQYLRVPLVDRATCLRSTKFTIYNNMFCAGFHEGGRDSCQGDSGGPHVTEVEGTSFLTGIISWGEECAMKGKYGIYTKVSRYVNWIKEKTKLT
Test: SPR as in Example 10, human FIX as analyte
Method: (§1) Monospecific antibodies (referred as ligand) which had been purified on Protein A were captured onto the anti-human IgG Fc CM4 surface at approximately 2 μg/ml. The ligands were injected for 60 seconds at 10 μl/min in all the active channels of all 8 flow channels. The run was performed at 25° C. using neutral pH HBS-P 1X+CaCl₂ 2.5 mM as running buffer.
(§2) Human FIX (MW ˜55 KDa) or human FX (MW ˜58 KDa) was reconstituted at 1 mg/ml in the running buffer and used as analyte. The analyte was injected in multiple cycle kinetics (MCK) mode at 3 concentrations (1.5 μM, 500 nM and 166.7 nM) with 120 seconds association phase and 200 seconds (for FIX) or 300 seconds (for FX) dissociation phase, at flow rate […] in both active and reference channels. Three injections of 10 mM Glycine pH 1.5 for 60 sec. at 10 μl/min were used for the regeneration phase.
(§3) Affinity and kinetics of purified anti-FIX and anti-FX antibodies for binding to their respective antigens was determined by SPR as described in Example 10 above.

Kd | koff | kon | Binder
359 nM | 0.0492 s⁻¹ | 137000 M⁻¹ s⁻¹ | B1
76.4 nM | 0.0171 s⁻¹ | 225000 M⁻¹ s⁻¹ | B2
52.3 nM | 0.01 s⁻¹ | 192000 M⁻¹ s⁻¹ | B3
218 nM | 0.0352 s⁻¹ | 161000 M⁻¹ s⁻¹ | B4
359 nM | 0.0523 s⁻¹ | 146000 M⁻¹ s⁻¹ | B5

Biological target: T2, human factor X (human, UniProt P00742 41-179; P00742 183-488)
T2 construct: Zymogen used as analyte in SPR; also called FX; Human FX (MW ~58 KDa)
T2 sequence (P00742 41-179, chain 1 of 2): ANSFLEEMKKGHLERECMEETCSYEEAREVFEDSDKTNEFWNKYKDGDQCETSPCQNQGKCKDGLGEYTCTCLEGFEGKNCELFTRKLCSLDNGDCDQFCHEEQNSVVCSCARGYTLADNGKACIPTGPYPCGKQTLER
T2 sequence (P00742 183-488, chain 2 of 2): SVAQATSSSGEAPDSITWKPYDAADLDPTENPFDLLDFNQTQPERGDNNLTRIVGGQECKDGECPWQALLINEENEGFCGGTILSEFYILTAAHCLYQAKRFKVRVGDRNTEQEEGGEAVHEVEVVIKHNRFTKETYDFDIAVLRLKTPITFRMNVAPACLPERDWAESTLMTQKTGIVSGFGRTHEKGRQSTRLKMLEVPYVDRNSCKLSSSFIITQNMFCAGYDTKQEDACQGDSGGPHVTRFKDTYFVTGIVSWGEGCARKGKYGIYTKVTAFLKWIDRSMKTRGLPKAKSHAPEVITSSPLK
Test: SPR, IgG captured on anti-human IgG Fc, human FX as analyte
Method: (§4) SPR was used to determine the binding affinity (KD) to FIX or FX respectively, the kinetic constants on-rate (kₒₙ) and off-rate (koff). Analyses was performed using a Biacore 8K (GE Healthcare) system.
as §1, §2

Kd | koff | kon | Binder
1150 nM | 0.0787 s⁻¹ | 68400 M⁻¹ s⁻¹ | B6
847 nM | 0.141 s⁻¹ | 166000 M⁻¹ s⁻¹ | B7
680 nM | 0.0447 s⁻¹ | 65700 M⁻¹ s⁻¹ | B8
812 nM | 0.072 s⁻¹ | 88700 M⁻¹ s⁻¹ | B9
579 nM | 0.0502 s⁻¹ | 86700 M⁻¹ s⁻¹ | B10
974 nM | 0.0744 s⁻¹ | 76400 M⁻¹ s⁻¹ | B11
564 nM | 0.0574 s⁻¹ | 102000 M⁻¹ s⁻¹ | B12
1150 nM | 0.0679 s⁻¹ | 59000 M⁻¹ s⁻¹ | B13
466 nM | 0.0558 s⁻¹ | 120000 M⁻¹ s⁻¹ | B14
718 nM | 0.0785 s⁻¹ | 109000 M⁻¹ s⁻¹ | B15
880 nM | 0.0598 s⁻¹ | 68000 M⁻¹ s⁻¹ | B16
1130 nM | 0.115 s⁻¹ | 103000 M⁻¹ s⁻¹ | B17
992 nM | 0.0667 s⁻¹ | 67200 M⁻¹ s⁻¹ | B18

Biological target: T1, human factor IX
Test: SPR, IgG captured on anti-human IgG Fc, human FIX as analyte
Method: as §4, §1, §2

Kd | koff | kon | Binder
198 nM | 0.0576 s⁻¹ | 292000 M⁻¹ s⁻¹ | B1
242 nM | 0.0471 s⁻¹ | 194000 M⁻¹ s⁻¹ | B19
267 nM | 0.0544 s⁻¹ | 204000 M⁻¹ s⁻¹ | B20
289 nM | 0.0535 s⁻¹ | 185000 M⁻¹ s⁻¹ | B21
293 nM | 0.0673 s⁻¹ | 230000 M⁻¹ s⁻¹ | B22
206 nM | 0.0445 s⁻¹ | 216000 M⁻¹ s⁻¹ | B23
184 nM | 0.0453 s⁻¹ | 246000 M⁻¹ s⁻¹ | B5
263 nM | 0.0396 s⁻¹ | 151000 M⁻¹ s⁻¹ | B24

Biological target: T1, human factor IX
Test: as above
Remark: another data set of the same source

Kd | Binder
300 nM | B22

Biological target: T2, human factor X
Test: SPR as in Example 10, human FX as analyte

Kd | Binder
300 to 3000 nM | B25
300 to 3000 nM | B17

Biological target: T2, human factor X
Test: SPR as in Example 10, human FX as analyte
Remark: another data set of the same source
Method: as §1, §2, §3

Kd | koff | kon | Binder
1380 nM | 0.0709 s⁻¹ | 51300 M⁻¹ s⁻¹ | B9
816 nM | 0.0482 s⁻¹ | 59000 M⁻¹ s⁻¹ | B10
530 nM | 0.0222 s⁻¹ | 41900 M⁻¹ s⁻¹ | B26
927 nM | 0.0417 s⁻¹ | 44900 M⁻¹ s⁻¹ | B27
333 nM | 0.0232 s⁻¹ | 69900 M⁻¹ s⁻¹ | B25
2520 nM | 0.112 s⁻¹ | 44300 M⁻¹ s⁻¹ | B17
